Reference: US20230069996A1

Tests used:
[1] = biological target: IL-22 receptors on COLO205 cells (UniProt Q8N6P7)
[2] = biological target: IL-22 receptors on COLO205 cells (UniProt Q8N6P7); remark: listed apart in the source

Sequence of IL-22 receptors on COLO205 cells (Q8N6P7 16-574 limits assumed, chain 1 of 2): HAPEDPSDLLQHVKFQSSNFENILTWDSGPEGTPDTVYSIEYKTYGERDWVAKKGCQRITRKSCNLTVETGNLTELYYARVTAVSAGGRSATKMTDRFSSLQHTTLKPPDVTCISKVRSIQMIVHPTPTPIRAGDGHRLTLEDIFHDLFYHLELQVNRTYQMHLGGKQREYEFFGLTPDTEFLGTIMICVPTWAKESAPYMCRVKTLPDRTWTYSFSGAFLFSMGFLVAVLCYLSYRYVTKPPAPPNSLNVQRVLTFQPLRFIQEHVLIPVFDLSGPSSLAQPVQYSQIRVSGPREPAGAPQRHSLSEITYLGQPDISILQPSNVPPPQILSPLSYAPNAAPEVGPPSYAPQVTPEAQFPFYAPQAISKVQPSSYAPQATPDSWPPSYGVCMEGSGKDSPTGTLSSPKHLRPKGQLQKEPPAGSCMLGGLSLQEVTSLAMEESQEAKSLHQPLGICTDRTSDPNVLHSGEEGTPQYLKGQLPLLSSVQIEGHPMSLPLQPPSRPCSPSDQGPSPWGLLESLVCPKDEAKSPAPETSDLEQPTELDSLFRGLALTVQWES
Sequence of IL-22 receptors on COLO205 cells (Q08334 20-325 limits assumed, chain 2 of 2, further chain): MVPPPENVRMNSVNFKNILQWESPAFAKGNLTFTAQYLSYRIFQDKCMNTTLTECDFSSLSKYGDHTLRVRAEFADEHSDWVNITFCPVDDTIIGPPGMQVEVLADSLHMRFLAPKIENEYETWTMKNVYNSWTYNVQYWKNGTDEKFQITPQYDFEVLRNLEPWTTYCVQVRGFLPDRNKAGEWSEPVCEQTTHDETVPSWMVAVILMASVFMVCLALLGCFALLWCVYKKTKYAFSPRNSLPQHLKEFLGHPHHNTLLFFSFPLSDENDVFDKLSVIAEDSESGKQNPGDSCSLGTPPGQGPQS

## human IL-22 (from UniProt Q9GZX6) (ligand)
[1]
  EC50 (read off the curve) of IL-10 secretion by COLO205 cells, human IL-22 incubated with uPA: 0.05 nM
[2]
  EC50 (read off the curve) of IL-10 secretion by COLO205 cells, human IL-22 without uPA: 0.08 nM
